Assay results taken from publication PMC4587554.

Target: Pf12 (His26 to Ser321) (Plasmodium falciparum) (UniProt C6KSX0)
Assay: ITC; Pf12 10 μM in the sample cell; full length Pf41 or Pf41ΔID 100 μM added in 16 injections of 2.4 μL, 180 s apart; 25°C; one-site model; single experiment representative of two

With “Pf41 full length (mature, Lys21 to Ser378) (from UniProt Q8I1Y0 21-378) (natural protein)” the Kd was 0.0277 µM, the dH was -33.9 kcal/mol and the stoichiometry N was 0.85 Pf41:Pf12.
